T1: human cholecystokinin-2 receptor (CCK2R) (human, UniProt P32239 1-447)
T1 sequence (looked up): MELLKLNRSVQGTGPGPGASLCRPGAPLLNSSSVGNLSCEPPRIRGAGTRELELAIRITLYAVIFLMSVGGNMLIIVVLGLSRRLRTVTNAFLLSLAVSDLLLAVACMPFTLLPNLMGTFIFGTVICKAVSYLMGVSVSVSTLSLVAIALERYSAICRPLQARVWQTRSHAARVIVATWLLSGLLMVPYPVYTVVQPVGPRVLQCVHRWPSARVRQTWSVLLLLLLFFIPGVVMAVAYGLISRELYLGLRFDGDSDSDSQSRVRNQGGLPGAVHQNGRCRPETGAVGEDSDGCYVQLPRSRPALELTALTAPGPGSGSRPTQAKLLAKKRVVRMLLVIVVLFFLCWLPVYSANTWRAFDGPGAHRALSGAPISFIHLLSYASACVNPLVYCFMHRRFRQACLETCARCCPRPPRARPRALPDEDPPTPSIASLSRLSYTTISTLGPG

B1: DOTA-MGS10 (DOTA-DGlu-Tyr-Pro-Gly-Trp-(N-Me)Nle-Asp-1Nal-NH2) (peptide)
peptide: {DOTA}-[dE]YPGW[NMeNle]D[1Nal]-NH2
SMILES: CCCC[C@@H](C(=O)N[C@@H](CC(=O)O)C(=O)N[C@@H](Cc1cccc2ccccc12)C(N)=O)N(C)C(=O)[C@H](Cc1c[nH]c2ccccc12)NC(=O)CNC(=O)[C@@H]1CCCN1C(=O)[C@H](Cc1ccc(O)cc1)NC(=O)[C@@H](CCC(=O)O)NC(=O)CN1CCN(CC(=O)O)CCN(CC(=O)O)CCN(CC(=O)O)CC1
B2: DOTA-MGS4 (DOTA-DGlu-Ala-Tyr-Gly-Trp-(N-Me)Nle-Asp-(N-Me)Phe-NH2) (peptide)
peptide: {DOTA}-[dE]AYGW[NMeNle]D[NMeF]-NH2
SMILES: CCCC[C@@H](C(=O)N[C@@H](CC(=O)O)C(=O)N(C)[C@@H](Cc1ccccc1)C(N)=O)N(C)C(=O)[C@H](Cc1c[nH]c2ccccc12)NC(=O)CNC(=O)[C@H](Cc1ccc(O)cc1)NC(=O)[C@H](C)NC(=O)[C@@H](CCC(=O)O)NC(=O)CN1CCN(CC(=O)O)CCN(CC(=O)O)CCN(CC(=O)O)CC1
B3: DOTA-MGS8 (DOTA-DGlu-Pro-Tyr-Gly-Trp-(N-Me)Nle-Asp-1Nal-NH2) (peptide)
peptide: {DOTA}-[dE]PYGW[NMeNle]D[1Nal]-NH2
SMILES: CCCC[C@@H](C(=O)N[C@@H](CC(=O)O)C(=O)N[C@@H](Cc1cccc2ccccc12)C(N)=O)N(C)C(=O)[C@H](Cc1c[nH]c2ccccc12)NC(=O)CNC(=O)[C@H](Cc1ccc(O)cc1)NC(=O)[C@@H]1CCCN1C(=O)[C@@H](CCC(=O)O)NC(=O)CN1CCN(CC(=O)O)CCN(CC(=O)O)CCN(CC(=O)O)CC1
B4: DOTA-MGS9 (DOTA-DLys-Ala-Tyr-Gly-Trp-(N-Me)Nle-Asp-1Nal-NH2) (peptide)
peptide: {DOTA}-[dK]AYGW[NMeNle]D[1Nal]-NH2
SMILES: CCCC[C@@H](C(=O)N[C@@H](CC(=O)O)C(=O)N[C@@H](Cc1cccc2ccccc12)C(N)=O)N(C)C(=O)[C@H](Cc1c[nH]c2ccccc12)NC(=O)CNC(=O)[C@H](Cc1ccc(O)cc1)NC(=O)[C@H](C)NC(=O)[C@@H](CCCCN)NC(=O)CN1CCN(CC(=O)O)CCN(CC(=O)O)CCN(CC(=O)O)CC1
B5: DOTA-MGS5-2 (DOTA-DGlu-Ala-Tyr-Gly-Trp-(N-Me)Nle-Asp-2Nal-NH2) (peptide)
peptide: {DOTA}-[dE]AYGW[NMeNle]D[2Nal]-NH2
SMILES: CCCC[C@@H](C(=O)N[C@@H](CC(=O)O)C(=O)N[C@@H](Cc1ccc2ccccc2c1)C(N)=O)N(C)C(=O)[C@H](Cc1c[nH]c2ccccc12)NC(=O)CNC(=O)[C@H](Cc1ccc(O)cc1)NC(=O)[C@H](C)NC(=O)[C@@H](CCC(=O)O)NC(=O)CN1CCN(CC(=O)O)CCN(CC(=O)O)CCN(CC(=O)O)CC1

[ ]: non-standard residue; d: D form. The star is where a group is joined. DOTA = O=C(O)CN1CCN(CC(=O)O)CCN(CC(=O)*)CCN(CC(=O)O)CC1; 1Nal = N[C@@H](Cc1cccc2ccccc12)C(=O)O; 2Nal = N[C@@H](Cc1ccc2ccccc2c1)C(=O)O; NMeF = CN[C@@H](Cc1ccccc1)C(=O)O; NMeNle = CCCC[C@H](NC)C(=O)O; HYNIC = NNc1ccc(C(=O)*)cn1 Some results are limits rather than exact numbers.

The first experiment addresses human cholecystokinin-2 receptor (CCK2R) (human) (UniProt P32239). Description: displacement of [125I]Tyr12-gastrin-I on A431-CCK2R cells, filter plates, 1 h RT. Background: Displacement assays read how much labelled ligand stays bound in the presence of the test substance.
Regarding “DOTA-MG11 ([1,4,7,10-tetraazacyclodocecan-1,4,7,10-tetraacetic acid^0, D-Glu^1, DesGlu^2-6] minigastrin) (peptide)”, the IC50 is 0.9 nM. This counts as sub-nanomolar.

A further experiment addresses T1, human cholecystokinin-2 receptor (CCK2R). The experiment can be described thus: cell-based or functional assay.
^111In-DOTA-MG11 (peptide) registered a cellular internalization after 2 h incubation on A431-CCK2R cells (% of total activity) of 29%.
Regarding {HYNIC}-[dE]AYGW[NMeNle]D[1Nal]-NH2 (also: HYNIC coordinating 99mTc, co-ligand not given here) [^99mTc-HYNIC-MGS5], the “cell uptake after 2 h incubation on A431-CCK2R cells (% of total activity)” value (“cell uptake … (% of total activity)” for short) was 63%.
Consider {DOTA}-[dE]YPGW[NMeNle]D[1Nal]-NH2 (also: DOTA coordinating 177Lu) [^177Lu-DOTA-MGS10], for which the “cellular internalization after 2 h incubation on A431-CCK2R cells (% of total activity)” value is greater than 50%.
Regarding {DOTA}-[dE]AYGW[NMeNle]D[1Nal]-NH2 (also: DOTA coordinating 111In) [^111In-DOTA-MGS5], the “cell uptake … (% of total activity)” value came out at 68%.
On the same count and under the same terms, then {DOTA}-[dK]AYGW[NMeNle]D[1Nal]-NH2 (also: DOTA coordinating 111In) [^111In-DOTA-MGS9], with 37%.
For the molecule {DOTA}-[dE][dE][dE][dE][dE][dE]AYGWMDF-NH2 (also: DOTA coordinating 111In) [^111In-PP-F11], the “cellular internalization after 2 h incubation on A431-CCK2R cells (% of total activity)” value was less than 24%.
Same read-out and setting: then {DOTA}-[dE]AYPW[NMeNle]D[1Nal]-NH2 (also: DOTA coordinating 68Ga) [^68Ga-DOTA-MGS12], with roughly 40%.
{DOTA}-[dE][dE][dE][dE][dE][dE]AYGWMDF-NH2 (also: DOTA coordinating 177Lu) [^177Lu-PP-F11]: the “cell uptake … (% of total activity)” value is less than 30%.
On the same count and under the same terms, the value for {DOTA}-[dE]AYGW[NMeNle]D[1Nal]-NH2 (also: DOTA coordinating 177Lu) [^177Lu-DOTA-MGS5] was 63%; that for {DOTA}-[dE]AYGW[NMeNle]D[1Nal]-NH2 (also: DOTA coordinating 68Ga) [^68Ga-DOTA-MGS5] was 54%.
The same measure, in the same setting: the value for {DOTA}-[dE]AYGW[NMeNle]D[2Nal]-NH2 (also: DOTA coordinating 111In) [^111In-DOTA-MGS5-2] was 45%.

Another experiment has as its target serum proteins (fresh human serum) (human). The experiment can be described thus: incubation in fresh human serum at 37 C (500 pmol/mL), Sephadex G-50 size-exclusion chromatography, gamma counting. (In gel filtration, larger molecules generally elute earlier.)
{DOTA}-[dE]AYPW[NMeNle]D[1Nal]-NH2 (also: DOTA coordinates 111In) [^111In-DOTA-MGS12] gave a Percentage of radioligand bound to serum proteins after 4 h incubation of 41.2% and a Percentage of radioligand bound to serum proteins after 24 h incubation of 45.9%.
For {DOTA}-[dE]YPGW[NMeNle]D[1Nal]-NH2 (also: DOTA coordinates 111In) [^111In-DOTA-MGS10] the same measures were 56.7% and 53.4%.
For {DOTA}-[dE]AYGW[NMeNle]D[NMeF]-NH2 (also: DOTA coordinates 111In) [^111In-DOTA-MGS4 (^111In-DOTA-DGlu-Ala-Tyr-Gly-Trp-(N-Me)Nle-Asp-(N-Me)Phe-NH2)] the same measures were 8.9% and 11.9%.
For {DOTA}-[dE]AYGW[NMeNle]D[1Nal]-NH2 (also: DOTA coordinating 111In) [^111In-DOTA-MGS5] the same measures were 41% and 44.3%.
In turn, {DOTA}-[dE]AYGWMD[1Nal]-NH2 (also: DOTA coordinates 111In) [^111In-DOTA-MGS1 (^111In-DOTA-DGlu-Ala-Tyr-Gly-Trp-Met-Asp-1Nal-NH2)] displayed a Percentage of radioligand bound to serum proteins after 4 h incubation of 20% and a Percentage of radioligand bound to serum proteins after 24 h incubation of 28.8%.
The molecule {DOTA}-[dK]AYGW[NMeNle]D[1Nal]-NH2 (also: DOTA coordinating 111In) [^111In-DOTA-MGS9] displayed a Percentage of radioligand bound to serum proteins after 4 h incubation of 26.6% and a Percentage of radioligand bound to serum proteins after 24 h incubation of 27.8%.
As to {DOTA}-[dE]AYGW[NMeNle]D[2Nal]-NH2 (also: DOTA coordinating 111In) [^111In-DOTA-MGS5-2], the Percentage of radioligand bound to serum proteins after 4 h incubation was 31.7% and the Percentage of radioligand bound to serum proteins after 24 h incubation was found to be 34.6%.
For {DOTA}-[dE]PYGW[NMeNle]D[1Nal]-NH2 (also: DOTA coordinates 111In) [^111In-DOTA-MGS8], in that order: 44.5% and 52.8%.

The next experiment has as its target T1, human cholecystokinin-2 receptor (CCK2R). Description: displacement of [125I]Tyr12-gastrin-I on A431-CCK2R cells, filter plates, 1 h RT. The procedure: Affinity for CCK2R was studied in A431 human epidermoid carcinoma cells stably transfected with the plasmid pCR3.1 containing the full coding sequence for the human CCK2R (A431-CCK2R) kindly provided by Dr. Luigi Aloj (Aloj L et al., J Nucl Med 2004, 45:485-494). […] Binding assays were carried out in 96-well filter plates (MultiScreenHTS-FB, Merck Group, Darmstadt, Germany) pretreated with 10 mM TRIS/139 mM NaCl PH 7.4 (2×250 μl). For the assay a number of 200,000-400,000 A431-CCK2R cells per well was prepared in 35mM HEPES buffer pH 7.4 containing 10 mM MgCl₂, 14 μM bacitracin and 0.5% BSA (a hypotonic solution disturbing the integrity of the cell membranes). […] Incubation was interrupted by filtration of the medium and rapid rinsing with ice-cold 10 mM TRIS/139 mM NaCl PH 7.4 (2×200 μl) and the filters were counted in the gamma-counter. Half maximal inhibitory concentration (IC50) values were calculated following nonlinear regression with Origin software (Microcal Origin 6.1, Northampton, MA) and a representative assay was chosen for comparison.
In turn, B1 registered an IC50 of 0.9 nM.
Still for that read-out and setting: the value for B2 was 1.2 nM.
Consider {DOTA}-[dE]AYGWMD[1Nal]-NH2 [DOTA-MGS1 (DOTA-DGlu-Ala-Tyr-Gly-Trp-Met-Asp-1Nal-NH2)], for which the IC50 came to 1.9 nM.
Same read-out and setting: then B3, with 1.6 nM; and B4, with 1.8 nM.
On the same count and under the same terms, then B5, with 1.6 nM; and {HYNIC}-[dE]AYGW[NMeNle]D[1Nal]-NH2 [HYNIC-MGS5 (HYNIC-DGlu-Ala-Tyr-Gly-Trp-(N-Me)Nle-Asp-1Nal-NH2)], with 6 nM.

A word on the IC50: it is the concentration that inhibits the measured activity by half. Lower therefore signals higher potency.
